# B1: UBC-domain of Ube2S (domain or fragment)
# chain: MNSNVENLPPHIIRLVYKEVTTLTADPPDGIKVFPNEEDLTDLQVTIEGPEGTPYAGGLFRMKLLLGKDFPASPPKGYFLTKIFHPNVGANGEICVNVLKRDWTAELGIRHVLLTIKCLLIHPNPESALNEEAGRLLLENYEEYAARARLLTEIHG
# B2: Ube2S (enzyme, UniProt Q16763 1-222, looked up)
# chain: MNSNVENLPPHIIRLVYKEVTTLTADPPDGIKVFPNEEDLTDLQVTIEGPEGTPYAGGLFRMKLLLGKDFPASPPKGYFLTKIFHPNVGANGEICVNVLKRDWTAELGIRHVLLTIKCLLIHPNPESALNEEAGRLLLENYEEYAARARLLTEIHGGAGGPSGRAEAGRALASGTEASSTDPGAPGGPGGAEGPMAKKHAGERDKKLAAKKKTDKKRALRRL
# Molecular target: ubiquitin (UniProt P0CG48 1-76)
# Assay: NMR titration
row,Binder,Kd [µM]
1,B1,1110 ± 80
2,B2,1700 ± 80

# Reference: PMC3072108 (Cell, 2011)
